Measurements as given in PMC10188207.

How the values were obtained:
FoxP1 FKH domain (human) = test: fluorescence anisotropy; details: 200 nM labeled DNA, protein 0-500 nM; 'standard buffer' (composition, salt and pH not in material); dimerization assays at 37 C, DNA-binding temperature not stated; ex 480 nm, em 525 nm
[1] = system: FoxP1 ZIP-lin-FKH (human); test: fluorescence anisotropy; details: 200 nM labeled DNA, protein 0-500 nM; 'standard buffer' (composition, salt and pH not in material); dimerization assays at 37 C, DNA-binding temperature not stated; ex 480 nm, em 525 nm
[2] = molecular target: FoxP1 ZIP-lin (leucine zipper domain with the linker, residues 342-462), unlabeled wild type (human) (UniProt Q9H334); test: SEC; Superdex 75 increase, 20 mM HEPES pH 7.8, 150 mM NaCl; unlabeled protein at 10 µM; molecular weight from a calibration curve with known proteins
[3] = molecular target: FoxP1 ZIP(A356C)-lin labeled with BODIPY FL (human) (UniProt Q9H334); test: fluorescence polarisation; fluorescence anisotropy; 5 nM BODIPY FL-labeled single-cysteine protein titrated with its unlabeled wild-type construct (0-5000 nM ZIP-lin, 0-200 nM ZIP-lin-FKH), 37 °C; two-state model, monomer-dimer equilibrium; duplicates
[4] = molecular target: FoxP1 ZIP-lin-FKH (leucine zipper, linker and Forkhead domain, residues 342-548), unlabeled wild type (human) (UniProt Q9H334); test: SEC; Superdex 75 increase, 20 mM HEPES pH 7.8, 150 mM NaCl; unlabeled protein at 10 µM; molecular weight from a calibration curve with known proteins
[5] = molecular target: FoxP1 ZIP(A356C)-lin-FKH labeled with BODIPY FL (human) (UniProt Q9H334); test: fluorescence polarisation; fluorescence anisotropy; 5 nM BODIPY FL-labeled single-cysteine protein titrated with its unlabeled wild-type construct (0-5000 nM ZIP-lin, 0-200 nM ZIP-lin-FKH), 37 °C; two-state model, monomer-dimer equilibrium; duplicates
[6] = molecular target: FoxP1 ZIP(A356C)-lin-FKH labeled with BODIPY FL (human) (UniProt Q9H334); test: fluorescence polarisation; fluorescence anisotropy; 5 nM labeled monomer preincubated with 10 nM unlabeled DNA, then titrated with unlabeled wild-type ZIP-lin-FKH that was previously denatured to ensure the monomeric form; apparent KD; monomer-dimer equilibrium

FoxP1 FKH cognate DNA, Alexa488-labeled was tested, and the Kd (FoxP1 FKH domain (human)) was 176 nM and the Kd [1] was 170 nM.

For “FoxP1 ZIP-lin (leucine zipper domain with the linker, residues 342-462), unlabeled wild type (from UniProt Q9H334 342-462) (domain or fragment)”, the stoichiometry N [2] was 2 and the Kd [3] was 123 nM.

Work on “FoxP1 ZIP-lin-FKH (leucine zipper, linker and Forkhead domain, residues 342-548), unlabeled wild type (from UniProt Q9H334 342-548) (domain or fragment)” yielded a stoichiometry N [4] of 2, a Kd [5] of 29 nM and a Kd [6] of 55 nM.
